Results on 9 sequences are retold here after patent publication US20230416709.

Common to all, as to test: cell_activity
The subject of data set [1] is B2M_PPR(L)-FokI M50 (Flavobacterium okeanokoites (FokI domain)). As to conditions: Fn reporter HEK293T, paired with B2M_PPR(R).
In data set [2] the test system is GFP_PPR(L)-FokI M50 (Flavobacterium okeanokoites (FokI domain)). Particulars: Fn reporter HEK293T, paired with GFP_PPR(R).
The subject of data set [3] is B2M_PPR(R)-FokI M50 (Flavobacterium okeanokoites (FokI domain)). Particulars: Fn reporter HEK293T, paired with B2M_PPR(L).
Data set [4] relates to TALEN-A-FokI wild-type (MBP fusion) (Flavobacterium okeanokoites (FokI domain)). Particulars: E. coli B2P, 0.1 mM IPTG 15 min 37 C.
The test system of data set [5] is TALEN-A-FokI M49 (MBP fusion) (Flavobacterium okeanokoites (FokI domain)). As to conditions: E. coli B2P, 0.1 mM IPTG 15 min 37 C.
Data set [6] relates to TALEN-A-FokI M50 (MBP fusion) (Flavobacterium okeanokoites (FokI domain)). Particulars: E. coli B2P, 0.1 mM IPTG 15 min 37 C; 24% in second experiment (p75).
Data set [7] relates to TALEN-A-FokI M47 (MBP fusion) (Flavobacterium okeanokoites (FokI domain)). As to conditions: E. coli B2P, 0.1 mM IPTG 15 min 37 C.
The subject of data set [8] is TALEN-A-FokI M48 (MBP fusion) (Flavobacterium okeanokoites (FokI domain)). Particulars: E. coli B2P, 0.1 mM IPTG 15 min 37 C.
The subject of data set [9] is TALEN-A-FokI M50(G473) (MBP fusion) R473G (Flavobacterium okeanokoites (FokI domain)). Particulars: E. coli B2P; M50 24% in same experiment.
For data set [10], the system named is GFP_TALEN(L)-FokI M47 (Flavobacterium okeanokoites (FokI domain)). Particulars: SSA reporter HEK293T, pair; value in figure only.
In data set [11] the test system is GFP_TALEN(L)-FokI M49 (Flavobacterium okeanokoites (FokI domain)). Particulars: SSA reporter HEK293T, pair; value in figure only.
Data set [12] concerns GFP_TALEN(L)-FokI M48 (Flavobacterium okeanokoites (FokI domain)). As to conditions: SSA reporter HEK293T, pair; value in figure only.
For data set [13], the system named is GFP_TALEN(L)-FokI M50 (Flavobacterium okeanokoites (FokI domain)). As to conditions: SSA reporter HEK293T, pair; value in figure only.
The subject of data set [14] is B2M_TALEN(L)-FokI M47 (Flavobacterium okeanokoites (FokI domain)). Particulars: SSA reporter HEK293T, pair; value in figure only.
In data set [15] the test system is B2M_TALEN(L)-FokI M50 (Flavobacterium okeanokoites (FokI domain)). As to conditions: SSA reporter HEK293T, pair; value in figure only.
In data set [16] the test system is B2M_TALEN(L)-FokI M49 (Flavobacterium okeanokoites (FokI domain)). As to conditions: SSA reporter HEK293T, pair; value in figure only.
The subject of data set [17] is B2M_TALEN(L)-FokI M48 (Flavobacterium okeanokoites (FokI domain)). Particulars: SSA reporter HEK293T, pair; value in figure only.
Data set [18] deals with GFP_PPR(R)-FokI M50 (Flavobacterium okeanokoites (FokI domain)). Particulars: Fn reporter HEK293T, paired with GFP_PPR(L).
The test system of data set [19] is B2M_TALEN(R)-FokI M47 (Flavobacterium okeanokoites (FokI domain)). Particulars: SSA reporter HEK293T, pair; value in figure only.
Data set [20] deals with B2M_TALEN(R)-FokI M49 (Flavobacterium okeanokoites (FokI domain)). Particulars: SSA reporter HEK293T, pair; value in figure only.
In data set [21] the test system is B2M_TALEN(R)-FokI M48 (Flavobacterium okeanokoites (FokI domain)). Particulars: SSA reporter HEK293T, pair; value in figure only.
For data set [22], the system named is B2M_TALEN(R)-FokI M50 (Flavobacterium okeanokoites (FokI domain)). Particulars: SSA reporter HEK293T, pair; value in figure only.
For data set [23], the system named is GFP_TALEN(R)-FokI M50 (Flavobacterium okeanokoites (FokI domain)). Particulars: SSA reporter HEK293T, pair; value in figure only.
The test system of data set [24] is GFP_TALEN(R)-FokI M48 (Flavobacterium okeanokoites (FokI domain)). As to conditions: SSA reporter HEK293T, pair; value in figure only.
Data set [25] relates to GFP_TALEN(R)-FokI M49 (Flavobacterium okeanokoites (FokI domain)). As to conditions: SSA reporter HEK293T, pair; value in figure only.
Data set [26] relates to GFP_TALEN(R)-FokI M47 (Flavobacterium okeanokoites (FokI domain)). As to conditions: SSA reporter HEK293T, pair; value in figure only.

“AATGGAAAGTCAAA (double strand) [B2M_PPR(L) half-site]”: the activity (fold vs WT FokI) in data set [1] was found to be 2.2.

“ACGACTTCTTCAAGT (double strand) [GFP_PPR(L) half-site]” showed an activity (fold vs WT FokI) in data set [2] of 1.5.

In the case of “AGCAATTCAGGAAA (double strand) [B2M_PPR(R) half-site]”, in data set [3], the activity (fold vs WT FokI) stood at 2.2.

Regarding “AGCCGAAATCATCGCAGCCGCTGCCGCGAGCTCCTGCGATGATTTCGGCT (double strand) [TALEN-A target site (inverted repeat)]”, the activity in data set [4] is 0.0001 % survival; in [5], 45 % survival; in [6] it was 28 % survival; in data set [7], 29 % survival; in data set [8], 37 % survival; in data set [9], < 0.05 % survival.

For the sequence “CAGCGTGTCCGGCGA (double strand) [GFP_TALEN(L) half-site]”, the activity (fold vs WT FokI) in [10], in data set [11], in data set [12] and in data set [13] was > 1 throughout.

“CCAAAGATTCAGGT (double strand) [B2M_TALEN(L) half-site]”: the activity (fold vs WT FokI) in data set [14], in data set [15], in data set [16] and in data set [17] was > 1 in each case.

As to “CCTGGACGTAGCCTT (double strand) [GFP_PPR(R) half-site]”, in [18], the activity (fold vs WT FokI) is 1.5.

For the sequence “GACTTTCCATTCTC (double strand) [B2M_TALEN(R) half-site]”, the activity (fold vs WT FokI) in data set [19], in data set [20], in data set [21] and in [22] was > 1 in each case.

Take “TTGCCGTAGGTGGCA (double strand) [GFP_TALEN(R) half-site]”: the activity (fold vs WT FokI) in data set [23], in data set [24], in data set [25] and in [26] was > 1 in each case.
